{"source": "patent US20190184028A1", "about": "(Janssen / Centocor, published 2019)", "binders": {"B1": {"name": "ISOP130R5CP6_A06_K23A vcMMAF conjugate (designed binder)", "chain": "MLPAPKNLVVSRVTEDSARLSWAHYRPGARFDSFLIQYQESEKVGEAIVLTVPGSERSYDLTGLKPGTEYTVSIYGVVTALPSYYSSNPLSAIFTTGGHHHHHHGGLPETGGH", "modifications": "vcMMAF conjugated via the sortase reaction at the C-terminal sortase tag"}, "B2": {"name": "ISOP130R5CP6_A06_T79A vcMMAF conjugate (designed binder)", "chain": "B1 chain with A23K, T79A", "modifications": "vcMMAF conjugated via the sortase reaction at the C-terminal sortase tag"}, "B3": {"name": "ISOP130R5CP6_A06_S86A vcMMAF conjugate (designed binder)", "chain": "B1 chain with A23K, S86A", "modifications": "vcMMAF conjugated via the sortase reaction at the C-terminal sortase tag"}, "B4": {"name": "ISOP130R5CP6_A06_G28A vcMMAF conjugate (designed binder)", "chain": "B1 chain with A23K, G28A", "modifications": "vcMMAF conjugated via the sortase reaction at the C-terminal sortase tag"}, "B5": {"name": "ISOP130R5CP6_A06_L81A vcMMAF conjugate (designed binder)", "chain": "B1 chain with A23K, L81A", "modifications": "vcMMAF conjugated via the sortase reaction at the C-terminal sortase tag"}, "B6": {"name": "ISOP130R5CP6_A06_R26A vcMMAF conjugate (designed binder)", "chain": "B1 chain with A23K, R26A", "modifications": "vcMMAF conjugated via the sortase reaction at the C-terminal sortase tag"}, "B7": {"name": "ISOP130R5CP6_A06_V78A vcMMAF conjugate (designed binder)", "chain": "B1 chain with A23K, V78A", "modifications": "vcMMAF conjugated via the sortase reaction at the C-terminal sortase tag"}, "B8": {"name": "ISOP130R5CP6_A06_Y85A vcMMAF conjugate (designed binder)", "chain": "B1 chain with A23K, Y85A", "modifications": "vcMMAF conjugated via the sortase reaction at the C-terminal sortase tag"}, "B9": {"name": "ISOP130R5CP6_A06_H24A vcMMAF conjugate (designed binder)", "chain": "B1 chain with A23K, H24A", "modifications": "vcMMAF conjugated via the sortase reaction at the C-terminal sortase tag"}, "B10": {"name": "ISOP130R5CP6_A06_Y84A vcMMAF conjugate (designed binder)", "chain": "B1 chain with A23K, Y84A", "modifications": "vcMMAF conjugated via the sortase reaction at the C-terminal sortase tag"}, "B11": {"name": "ISOP130R5CP6_A06_P27A vcMMAF conjugate (designed binder)", "chain": "B1 chain with A23K, P27A", "modifications": "vcMMAF conjugated via the sortase reaction at the C-terminal sortase tag"}, "B12": {"name": "ISOP130R5CP6_A06_S83A vcMMAF conjugate (designed binder)", "chain": "B1 chain with A23K, S83A", "modifications": "vcMMAF conjugated via the sortase reaction at the C-terminal sortase tag"}, "B13": {"name": "ISOP130R5CP6_A06_P82A vcMMAF conjugate (designed binder)", "chain": "B1 chain with A23K, P82A", "modifications": "vcMMAF conjugated via the sortase reaction at the C-terminal sortase tag"}, "B14": {"name": "ISOP130R5CP6_A06_Y25A vcMMAF conjugate (designed binder)", "chain": "B1 chain with A23K, Y25A", "modifications": "vcMMAF conjugated via the sortase reaction at the C-terminal sortase tag"}, "B15": {"name": "ISOP130R5CP6_A06_R30A vcMMAF conjugate (designed binder)", "chain": "B1 chain with A23K, R30A", "modifications": "vcMMAF conjugated via the sortase reaction at the C-terminal sortase tag"}, "B16": {"name": "P233FR9P1001-H3-1 vcMMAF conjugate (designed binder)", "chain": "LPAPKNLVVSRVTEDSARLSWTAPDAAFDSFPIGYWEWDDDGEAIVLTVPGSERSYDLTGLKPGTEYHVYIAGVKGGQWSFPLSAIFTT", "modifications": "vc-MMAF conjugated through a sortase tag (Gly3-vc-MMAF, sortase A)"}, "B17": {"name": "P233FR9_H10 vcMMAF conjugate (designed binder)", "chain": "B16 chain with P32A, H68P", "modifications": "vc-MMAF conjugated through a sortase tag (Gly3-vc-MMAF, sortase A)"}, "B18": {"name": "P229CR5P819_H11 vcMMAF conjugate (designed binder)", "chain": "LPAPKNLVVSRVTEDSARLSWDIDEQRDWFDSFLIQYQESEKVGEAIVLTVPGSERSYDLTGLKPGTEYTVSIYGVYHVYRSSNPLSAIFTT", "modifications": "vc-MMAF conjugated through a sortase tag (Gly3-vc-MMAF, sortase A)"}}, "key": {"[1]": {"target": "T1, human EpCAM (human, UniProt P16422 24-314)", "T1 sequence (looked up)": "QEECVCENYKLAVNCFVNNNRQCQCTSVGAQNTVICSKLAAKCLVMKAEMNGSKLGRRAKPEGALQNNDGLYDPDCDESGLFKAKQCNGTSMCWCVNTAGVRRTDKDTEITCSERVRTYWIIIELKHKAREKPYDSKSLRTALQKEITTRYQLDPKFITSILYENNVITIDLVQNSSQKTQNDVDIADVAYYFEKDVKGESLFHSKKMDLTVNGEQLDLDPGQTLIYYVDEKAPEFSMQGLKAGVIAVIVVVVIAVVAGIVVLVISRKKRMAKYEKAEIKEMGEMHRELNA", "test": "cell-based or functional assay"}, "[2]": {"target": "prostate specific membrane antigen (PSMA) (UniProt Q04609 1-750, limits assumed)", "sequence (Q04609 whole entry)": "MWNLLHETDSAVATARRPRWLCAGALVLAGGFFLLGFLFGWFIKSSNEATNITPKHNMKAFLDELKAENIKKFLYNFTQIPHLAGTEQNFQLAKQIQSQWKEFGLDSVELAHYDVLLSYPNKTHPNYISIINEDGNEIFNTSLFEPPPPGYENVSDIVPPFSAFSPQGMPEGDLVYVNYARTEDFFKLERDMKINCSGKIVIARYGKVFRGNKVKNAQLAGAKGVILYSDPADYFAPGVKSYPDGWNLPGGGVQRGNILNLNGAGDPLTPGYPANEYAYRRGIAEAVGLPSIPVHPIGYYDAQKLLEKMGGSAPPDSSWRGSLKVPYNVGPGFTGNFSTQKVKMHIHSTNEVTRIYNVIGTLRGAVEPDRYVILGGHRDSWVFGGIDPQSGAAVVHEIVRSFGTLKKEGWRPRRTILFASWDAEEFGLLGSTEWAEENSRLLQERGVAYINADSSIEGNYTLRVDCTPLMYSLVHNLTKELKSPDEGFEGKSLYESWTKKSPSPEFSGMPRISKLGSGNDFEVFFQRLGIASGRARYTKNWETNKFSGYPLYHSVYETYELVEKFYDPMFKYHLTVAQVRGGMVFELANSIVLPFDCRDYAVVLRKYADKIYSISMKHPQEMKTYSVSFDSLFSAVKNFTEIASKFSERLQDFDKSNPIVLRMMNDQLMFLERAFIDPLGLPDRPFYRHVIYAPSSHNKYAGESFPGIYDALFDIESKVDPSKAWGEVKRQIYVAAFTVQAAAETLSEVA", "test": "cell-based or functional assay"}}, "note": "Changes are numbered by the printed parent chain."}
{"binder": "B1", "values": [{"measurement": "IC50 (nM), cytotoxicity on COLO205 cells (CellTiterGlo)", "setting": "[1]", "value": 1, "unit": "nM"}]}
{"binder": "B2", "values": [{"measurement": "IC50 (nM), cytotoxicity on COLO205 cells (CellTiterGlo)", "setting": "[1]", "value": 0.5, "unit": "nM"}]}
{"binder": "B3", "values": [{"measurement": "IC50 (nM), cytotoxicity on COLO205 cells (CellTiterGlo)", "setting": "[1]", "value": 1.3, "unit": "nM"}]}
{"binder": "B4", "values": [{"measurement": "IC50 (nM), cytotoxicity on COLO205 cells (CellTiterGlo)", "setting": "[1]", "value": 0.8, "unit": "nM"}]}
{"binder": "B5", "values": [{"measurement": "IC50 (nM), cytotoxicity on COLO205 cells (CellTiterGlo)", "setting": "[1]", "value": 76, "unit": "nM"}]}
{"binder": "B6", "values": [{"measurement": "IC50 (nM), cytotoxicity on COLO205 cells (CellTiterGlo)", "setting": "[1]", "value": 507, "unit": "nM"}]}
{"binder": "B7", "values": [{"measurement": "IC50 (nM), cytotoxicity on COLO205 cells (CellTiterGlo)", "setting": "[1]", "value": 4.5, "unit": "nM"}]}
{"binder": "B8", "values": [{"measurement": "IC50 (nM), cytotoxicity on COLO205 cells (CellTiterGlo)", "setting": "[1]", "value": 564, "unit": "nM"}]}
{"binder": "B9", "values": [{"measurement": "IC50 (nM), cytotoxicity on COLO205 cells (CellTiterGlo)", "setting": "[1]", "value": 2.6, "unit": "nM"}]}
{"binder": "B10", "values": [{"measurement": "IC50 (nM), cytotoxicity on COLO205 cells (CellTiterGlo)", "setting": "[1]", "value": 0.4, "unit": "nM"}]}
{"binder": "B11", "values": [{"measurement": "IC50 (nM), cytotoxicity on COLO205 cells (CellTiterGlo)", "setting": "[1]", "value": 42.6, "unit": "nM"}]}
{"binder": "B12", "values": [{"measurement": "IC50 (nM), cytotoxicity on COLO205 cells (CellTiterGlo)", "setting": "[1]", "value": 1.4, "unit": "nM"}]}
{"binder": "B13", "values": [{"measurement": "IC50 (nM), cytotoxicity on COLO205 cells (CellTiterGlo)", "setting": "[1]", "value": 326, "unit": "nM"}]}
{"binder": "B14", "values": [{"measurement": "IC50 (nM), cytotoxicity on COLO205 cells (CellTiterGlo)", "setting": "[1]", "value": 127, "unit": "nM"}]}
{"binder": "B15", "values": [{"measurement": "IC50 (nM), cytotoxicity on COLO205 cells (CellTiterGlo)", "setting": "[1]", "value": 0.8, "unit": "nM"}]}
{"binder": "B16", "values": [{"measurement": "LNCaP cells IC50 (nM), cytotoxicity (CellTiterGlo)", "setting": "[2]", "value": 0.4, "unit": "nM"}, {"measurement": "MDA-PCA-2B cells IC50 (nM), cytotoxicity (CellTiterGlo)", "setting": "[2]", "value": 4.6, "unit": "nM"}, {"measurement": "VCAP cells IC50 (nM), cytotoxicity (CellTiterGlo)", "setting": "[2]", "value": 15.2, "unit": "nM"}]}
{"binder": "B17", "values": [{"measurement": "LNCaP cells IC50 (nM), cytotoxicity (CellTiterGlo)", "setting": "[2]", "value": 0.5, "unit": "nM"}, {"measurement": "MDA-PCA-2B cells IC50 (nM), cytotoxicity (CellTiterGlo)", "setting": "[2]", "value": 5.8, "unit": "nM"}, {"measurement": "VCAP cells IC50 (nM), cytotoxicity (CellTiterGlo)", "setting": "[2]", "value": 25.9, "unit": "nM"}]}
{"binder": "B18", "values": [{"measurement": "LNCaP cells IC50 (nM), cytotoxicity (CellTiterGlo)", "setting": "[2]", "value": 9.3, "unit": "nM"}, {"measurement": "MDA-PCA-2B cells IC50 (nM), cytotoxicity (CellTiterGlo)", "setting": "[2]", "value": 107, "unit": "nM"}, {"measurement": "VCAP cells IC50 (nM), cytotoxicity (CellTiterGlo)", "setting": "[2]", "value": 231, "unit": "nM"}]}
